The values that follow come from the Immune Epitope Database (IEDB).

Bounds are passed on as bounds.

The target in experiment [1] is HLA-A*01:01. The experiment in a line: IEDB peptide-MHC binding, purified MHC/direct/fluorescence; filed as Kd, often an IC50 or EC50 that approximates it; ≥ and ≤ were set here for values at or beyond the usual limits of such assays. The conditions noted are these: source organism: Camelpox virus M-96.
Experiment [2] deals with HLA-A*02:01. The experiment is described as above. The settings on record: source organism: Camelpox virus M-96.
Experiment [3] has as its target HLA-A*26:01. The experiment is described as above. The settings on record: source organism: Variola virus.
In experiment [4] the target is HLA-A*68:02. The description is as above. The settings on record: source organism: Camelpox virus M-96.
For experiment [5], the target named is HLA-A*69:01. Described as above. The settings on record: source organism: Camelpox virus M-96.
Experiment [6] concerns the target HLA-B*07:02. Described as above. The settings on record: source organism: Camelpox virus M-96.
For experiment [7], the target named is HLA-B*08:01. Described as above. The conditions noted are these: source organism: Variola virus.
Experiment [8] deals with HLA-B*08:02. The description is as above. The conditions noted are these: source organism: Variola virus.
Experiment [9] has as its target HLA-B*15:01. The description is as above. The conditions noted are these: source organism: Camelpox virus M-96.
The target in experiment [10] is HLA-B*15:17. The experiment is described as above. The conditions noted are these: source organism: Camelpox virus M-96.
The target of experiment [11] is HLA-B*18:01. The experiment is described as above. The settings on record: source organism: Camelpox virus M-96.
Experiment [12] concerns the target HLA-B*27:05. The experiment is described as above. The settings on record: source organism: Camelpox virus M-96.
For experiment [13], the target named is HLA-B*38:01. Described as above. The conditions noted are these: source organism: Variola virus.
Experiment [14] has as its target HLA-B*39:01. The experiment is described as above. The settings on record: source organism: Camelpox virus M-96.
The target of experiment [15] is HLA-B*40:01. The description is as above. The settings on record: source organism: Camelpox virus M-96.
For experiment [16], the target named is HLA-B*46:01. The experiment is described as above. The conditions noted are these: source organism: Camelpox virus M-96.
Experiment [17] deals with HLA-B*48:01. Described as above. The conditions noted are these: source organism: Camelpox virus M-96.
Experiment [18] has as its target HLA-B*57:01. Described as above. The conditions noted are these: source organism: Camelpox virus M-96.
Experiment [19] has as its target HLA-B*58:01. The experiment is described as above. The conditions noted are these: source organism: Camelpox virus M-96.
Experiment [20] deals with HLA-A*02:03. Kind of experiment: IEDB peptide-MHC binding, purified MHC/competitive/fluorescence; filed as Kd, often an IC50 or EC50 that approximates it; ≥ and ≤ were set here for values at or beyond the usual limits of such assays. The settings on record: source organism: Vaccinia virus WR.
The target of experiment [21] is HLA-A*30:01. Described as above. The conditions noted are these: source organism: Vaccinia virus WR.
In experiment [22] the target is HLA-B*35:01. The description is as above. The conditions noted are these: source organism: Vaccinia virus WR.

The term Kd denotes the equilibrium constant for the complex coming apart.

As for TESDAIRTL, the Kd in [1], in experiment [2], in [3], in experiment [4], in experiment [5] and in experiment [6] was not below 20 µM each time. Besides, the Kd is not below 20 µM in experiment [7]; not below 20 µM in experiment [8]; not below 20 µM in experiment [9]; not below 20 µM in experiment [10]; 0.017 µM in [11]; not below 20 µM in experiment [12]. Also, the Kd in experiment [13] is 3.77 µM; in experiment [14], 0.118 µM; in experiment [15] it was 0.0225 µM; in experiment [16] it was not below 20 µM; in [17], not below 20 µM; in experiment [18], not below 20 µM. For the same sequence, the Kd is not below 20 µM in [19], not below 20 µM in experiment [20], not below 20 µM in experiment [21] and 3.71 µM in [22].
